Assay [1] concerns the target biotinylated monomeric MOW15–22 RBD (MOW15–22 (bat MERSr-CoV sampled in Pipistrellus nathusii)). Briefly: BLI.
In assay [2] the target is biotinylated monomeric PnNL2018B RBD (PnNL2018B (bat MERSr-CoV sampled in Pipistrellus nathusii)). Briefly: BLI.
Assay [3] concerns the target dimeric P.dav ACE2 ectodomain (cryo-EM sample with MOW15–22 RBD) (P.dav (a Pteronotus bat)). Briefly: cryo-EM structure.

Where only a bound is given, the exact number is not on record here.

Substance “dimeric P.dav ACE2 ectodomain (residues 17–728, avi-His8) (from UniProt Q56H28 17-728) (domain or fragment)” had a Kd in assay [1] of 6.38 nM. In the case of “monomeric P.nat ACE2 ectodomain (residues 17–614, avi-His8) (domain or fragment)”, the Kd in assay [1] was 1450 nM. The same measure, in the same setting: for “monomeric P.dav ACE2 ectodomain (residues 17–613, avi-His8) (from UniProt Q56H28 17-613) (domain or fragment)” the value was 1070 nM.

Regarding “dimeric P.nat ACE2 ectodomain (residues 17–729, avi-His8) (domain or fragment)”, the Kd amounted to 12.8 nM in assay [1] and 897 nM in assay [2].

Take “MOW15–22 RBD (cryo-EM sample with P.dav ACE2) (from UniProt Q56H28 360-611) (domain or fragment)”: the stoichiometry N (RBD per ACE2 dimer) in assay [3] is under 1.

Source of the values: article PMC12360793.
